Source: PMC3327659

Assays:
[1] = molecular target: T1, DR0865 (Fur homologue) (Deinococcus radiodurans R1?) (UniProt Q9RW04); assay: EMSA; conditions: 30 mM Tris-HCl pH 6.8, 50 mM NaCl, 5% glycerol, 50 ug/mL calf thymus DNA, 50 ug/mL BSA, Mn2+ or Fe2+ (varied), 10 nM FITC-DNA, 30 min at 4 C; 5% native PAGE
T1 sequence: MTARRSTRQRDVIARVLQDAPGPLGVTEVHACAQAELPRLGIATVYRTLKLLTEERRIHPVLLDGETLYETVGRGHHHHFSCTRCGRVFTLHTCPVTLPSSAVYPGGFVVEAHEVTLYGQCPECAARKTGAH

[2] = molecular target: T2, DR2539 (Deinococcus radiodurans R1 (ATCC13939)) (UniProt Q9RRF3); assay: EMSA; conditions: 30 mM Tris-HCl pH 6.8, 50 mM NaCl, 5% glycerol, 50 ug/mL calf thymus DNA, 50 ug/mL BSA, Mn2+ or Fe2+ (varied), 10 nM FITC-DNA, 30 min at 4 C; 5% native PAGE
T2 sequence: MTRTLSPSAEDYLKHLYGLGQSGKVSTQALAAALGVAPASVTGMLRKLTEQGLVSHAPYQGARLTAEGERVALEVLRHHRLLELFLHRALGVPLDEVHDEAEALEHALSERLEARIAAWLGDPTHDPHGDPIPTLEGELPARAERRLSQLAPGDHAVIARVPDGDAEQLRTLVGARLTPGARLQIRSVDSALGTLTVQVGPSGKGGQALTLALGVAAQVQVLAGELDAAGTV

Sequence	binding [1]	binding [2]
CAGGCTGGGAGAACGGGAATCCATGGCCTTTATTTTAGGCGCGACTAAAATAGTTGTCCAACGGCGTGGGCTTGAGTTCGTCTTAAAGGCCGACTTTTTTGTGAAAAATGCCTCTTTCCCAAGATCCAGTCAGATTCCGTCACGCTGGGTCATCTGGTTTTCAGGGTGCTGTCACATATTTGCTAGAGGCTC (double strand) [p1709b (mntH promoter with inverted repeat)]	no binding	binds
GAGCCTCTAGCAAATATGTGACAGCACCCTGAAAACCAGATGACCCAGCGTGACGGAATCTGACTGGATCTTGGGAAAGAGGCATTTTTCACAAAAAAGTCGGCCTTTAAGACGAACTCAAGCCCACGCCGTTGGACA (double strand) [p1709a (mntH promoter lacking inverted repeat)]		no binding
